Data on 41 sequences can be found in the nanobody polyreactivity screen of Harvey et al. (2022).

This data set can be described thus: yeast display, Sf9 membrane polyspecificity reagent, FACS + sequencing; frameworks hold sequencing errors. In a few lines: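 A synthetic nanobody library was expressed on Saccharomyces cerevisiae BJ5465 by galactose induction for 36–48 hours. The library was stained for 1 hour at 4 °C with 10% biotinylated, detergent-solubilized Sf9 membrane reagent and enriched with streptavidin microbeads before FACS. Low and high (top ~1%) gates were set on anti-HA fluorescence for expression and streptavidin fluorescence for reagent binding, and each polyreactivity label reflects the gate of origin.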
In the case of “QVQLVESGGGLVQAGGSLRLSCAASGRIFGKNAMGWYRQAPGKERELVAAIRGNGGSTYYADSVKGRFTISRDNAKNTVYLQFNSLKPEDTAVYYCAARASAYFGRYYLYDYWGQGTQVTVSS”, the “polyreactivity (PSR sort gate)” value is on record as “high polyreactivity”.

On to “QVQLVESGGGLVQAGGSLRLSCAASGSIFPYNVMGWYRPAPGQERELVAANTTGGRTNYADSVKGRFTISRDNAKNTVYLQMNSLKPEDTAVYYCAARYGYYDSRRWYYYSGQGTQVTVSS”, for which the “polyreactivity (PSR sort gate)” value is given as “high polyreactivity”.

As to “QVQLVESGGGLVQAGGSLRLSCAASGRTFVYYAMGWYRQAPGKEREFVATITSSGGSTYYADSVKGRFTISRDNAKNTVYLQMNSLKPEDTAVYYCAASPYIRYSKVSKYYYWGQGTQVTVSS”, the “polyreactivity (PSR sort gate)” value was “high polyreactivity”.

As for “QVQLVESGGGLVQAGGSLRLSCAASGRIFYRNVMGWNRQAPGKERELVAAITYRTGSTYYADSVKGRFTISRDNAKNTVYLQMNSLKPEDTAVYYCNVVPRNGQTWGYEYDYWGQGTQVTVSS”, the “polyreactivity (PSR sort gate)” value is listed as “high polyreactivity”.

Regarding “QVQLVESGGGLVQAGGSLRLSCAASGYTFRAYVMGWYRQAPGKERELVAGITRRGGTTYYADSVKGRFTISRDNAKNTVYLQMNSLKPEDTAVYYCNAVFRSGSIPYDSWGQGTQVTVSS”, the “polyreactivity (PSR sort gate)” value is on record as “high polyreactivity”.

As for “QVQLVESGGGLVQEGGSLRLSCAASGSTFWGYAMGWYRQAPGKERELVATITTGGSTNYADSVKGRFTISRDNAKNTVYLQMNSLKPEDTAVYYCAAERLFRFWYSAYERYDYCGQGTQVTVSS”, the “polyreactivity (PSR sort gate)” value is reported as “low polyreactivity”.

“QVQLVESGGGLDQAGGSHRLSCAASGSTFPYPNTMGWYRQAPGKERELVAVISRTGGSTFYADSVKWRFTISRDNAKNTVYFQMNSLKPEDTAVYYCAARRDGWTFWKYDYWGHGTQVTVSS”: the “polyreactivity (PSR sort gate)” value is on record as “high polyreactivity”.

Take “QVQLVESGGGLVQAGGSLRLSCAASGITFLNYAMGWYRQAPGKERELVAAISWSGGRTYYADSVKGRFTISRDKGKNTVYLQMNSLKPEDTAVYYCAADRGVNSYGYWGQGTQVTVSS”: the “polyreactivity (PSR sort gate)” value is reported as “high polyreactivity”.

For “QVQLVESGGGLVQAGVRLRLSCPASGTTFYYNAMGRYRQAPGKERELVAAITSGGRTKYADSVKGRFTISRDNAKNTVYLQKNRLKPEDTAVYYCNTYNRRSGTLPKAYDYWGQGTQVTVSS”, the “polyreactivity (PSR sort gate)” value is reported as “high polyreactivity”.

For “QVQLVESGGGLVQAGGSLRLSCAASGIIFSANAMGWYRQAPGKERELVAAISRDGSTYYADSVKGRFTISRDNAKNTVYLQMNSLKPEDTAVYYCAVDPIYYWRPGYDYWGQGTQVTVSS”, the “polyreactivity (PSR sort gate)” value was “low polyreactivity”.

For “QVQLVESGGGLVQAAGSLRLSCAASGSPFSGYAMGWYRQPPGKQRELVAAISWRGVRTSYADSVKGRFTISRDNAKNRVYLQMNSLKPEDSAVYYCDAVRYITKEFYWGQGTQVTVSS”, the “polyreactivity (PSR sort gate)” value is reported as “high polyreactivity”.

For “QVLLQESGGGLVQAGGSLRLCCSASGYISGDQFMGWYRQAPGKEREFVAGIGNGTNTNYADSVKGRFTTSRDNEKNTVYLQMNIRKPEDTAVYYCAADPSDGSTLAYWGQGTQVTVSS”, the “polyreactivity (PSR sort gate)” value was “high polyreactivity”.

Regarding “QVQLVESGGGLVQAGGSLRLTCAASGSIFPDNAMAWYRQAPGNERELVAAITSSGGSTYYADSVKGRLRISRDNAKNTVYLQMNSLKPADSAVYYCAKGRSYSVAKRRLYKYWGQGTEVTVSS”, the “polyreactivity (PSR sort gate)” value was “high polyreactivity”.

For “QVQLVESGGGLVQAGGSLRLSCAASGRTFSWYAMGWYRQAPGKERELVAAITRDGGNTYYADSVKGRFTISRDNAKNTVYLQMNSLKPEDTAVYYCAAAPTTGKRPGYYYWGQGTQVTVSS”, the “polyreactivity (PSR sort gate)” value is reported as “high polyreactivity”.

For “QVQLVESGGGLVQAGGSLRLSCAASGGIFKSNTMGWYRQAPGKERELFAAITSGGSTNYADSVKGRFTISRDNAKNTVYLQMNSLKPEDTAVYYCNTDDRYYTPSRAVFQYDYWGQGTQVTVSS”, the “polyreactivity (PSR sort gate)” value is “low polyreactivity”.

Turning to “QVQFVESGGGLVQAGGSLRLSCAASGSTFPYYAMGWYRQAPGKERELVAGINWRGSSTYYADSVKGRFTISRDNAKNTVYLQMNSLKPEDTAVYYCAARDYSYPQWYYYWGQGTQVTVSS”, the “polyreactivity (PSR sort gate)” value is listed as “high polyreactivity”.

“HVQLVESGGGLVQAGGSLRLSCAASGRISDRYAMGWSRQAPGKEREFVAAISWSGASTYYADSVKGRFTISRDNAKNTVYLQMNSLKAEDTAVYYCAARRRHKYDYWGQGTQVTVSS”: the “polyreactivity (PSR sort gate)” value was “high polyreactivity”.

Take “QVQLVESGRGLVQAGGSLRLSCAVSGSIGVYAMGWYRQAPGKERELVAAISKRGGSTRYADSVKGRFTISRDNAKNTVYLQMNSLKPEDTAVYYCAATGSVTGPRYAYDYWGQGTQVTVSS”: the “polyreactivity (PSR sort gate)” value is reported as “high polyreactivity”.

As to “QVQLVESGGGLVHAGGSLRLSCAASGSTLRGYVMGWYRQAPGKERELVAAITQRAGSTYYADSVKGRFTISRDNAKNPVYLQMNSLKAEDTAVYYCNVDRHYAVESGYWGQGTQVTVSS”, the “polyreactivity (PSR sort gate)” value is on record as “high polyreactivity”.

“QVQLVESGGGLVQAGGSLRLSCAASGRTFDKYAMGWYRQAPGKERELVAAISYDAGRTYYADSVKGRFTISRDNAKNTVYLQMNSLKPEDTAVYYCNAVRFRGFGWGQGTQVTVSS”: the “polyreactivity (PSR sort gate)” value is “high polyreactivity”.

Regarding “QVQLVESGGGLVQAGGSLRLSSAGSGRIFGYYAMGGYRQAPGTETELVAAISSNGGSTYYADSVKGRFTISRDNANNTVYLQMNSLQPEDTAVYYCKVYFYSRHYFYRGDYWGQGTQVTVSS”, the “polyreactivity (PSR sort gate)” value was “high polyreactivity”.

Take “QVQLVESGGGLVQAGGSLRLSCADSGITIVWYAIGWYRQAPGKERELVAAISRGGGSTYYADSVKGRFTISRDNAKNTVYLQMNSLKPEDTAVYYCAASGGYTFDWLEFDYWGQGTQVTVSS”: the “polyreactivity (PSR sort gate)” value was “low polyreactivity”.

Turning to “QVQLVESGGGLVQAGGSLRLSCAASGSIFDRYVMGWYRQAPGKERELVAAITTSGDGTYYADSVKGRFTISRDNAKNTVYLQMNSLKPEDTAVYYCAAVRRSWKYSTSDYWGQGTQVTVSS”, the “polyreactivity (PSR sort gate)” value is on record as “low polyreactivity”.

In the case of “QVQLVESGGGLVQAGGSLRLSCAASGRIFSTYAMGWYRQAPGKERELVAAISYSGTTTYYADSVKGRFTISRDNAKNTVYLQLNRLKPEDTAVYYCAAYRYSSWAYGRDYYWGQGTQVTVSS”, the “polyreactivity (PSR sort gate)” value is on record as “high polyreactivity”.

As for “QVQRVESGGGLVQAGGSLRLSCAASGSIFTGNAMGWYRQAPGKEREFVAAIRRSGA”, the “polyreactivity (PSR sort gate)” value is on record as “low polyreactivity”.

On to “QVQLVESGGGLVQAGGSHRLSCAASGGTFNTNAMGWYRQAPGKERELVATIRGGVITTYADSVKGRFTISRDNAKNTVYLQMNSLKPEDTAVYYFNKDNAPYAVSSIFGARDYWGQGTQVTVSS”, for which the “polyreactivity (PSR sort gate)” value was “low polyreactivity”.

As for “QVQLVESGGGLVQAGGSLRLSCAASGSIFGPYAMGWYRQAPGKERELVAAITIGGDNTYYADSVKGRFTISRDNAKNTVYLQMNSLKPEDTAVYYCAAKYYCGKPHYYEYYYWGQGTQVTVSS”, the “polyreactivity (PSR sort gate)” value is reported as “low polyreactivity”.

Turning to “QVQLVESGGGLVQAGGSLRLSCSASGSIFDGYAMGWYRQAPGKEREIVAAISKGGTRTYYADSVMGRFTISRDNAKNTVYLQMNSLKPEDTAFYYCNAYYRREPDDGDYDYWGQGSQVTVSS”, the “polyreactivity (PSR sort gate)” value is on record as “high polyreactivity”.

Turning to “QVQLVESGGGLVQAGGSLRLSCAASGSTFVINAMGWYRQAPGKERELVAAISFSGDTTYYADSVKGRFTISRDNAKNTVYLQMNSLKPEDTAVYYCAASVTVGISKYGYWGQGTQVTVSS”, the “polyreactivity (PSR sort gate)” value is on record as “high polyreactivity”.

As to “QVQLVESGGGLVQAGGSLRLSCAASGSIFGTNAMGWYRQAPGKERELVAAINWSGGTTYYADSVKGRFTISRDNAKNTVYLQMNSLKPEDTAVYYCATVFFVLPPTRFDSWGQGTQVTVSS”, the “polyreactivity (PSR sort gate)” value was “low polyreactivity”.

Take “QVQLVESGGGLVQAGGSLRLSCAASGRIFTPYAMGWYRQAPGKERELVATISRGTSTSYADSVKGRFTISRDNAKNTVYLQMNSLKPEDTAVYYCAALGPRTTFRYTSYYYWGQGTQVTVSS”: the “polyreactivity (PSR sort gate)” value was “high polyreactivity”.

Consider “QVQLVESGGGLVQAGGSLRLSCAASGFTFQYYAMGWYRQAPGKERELVAAISWGGGSTYYADSVKGRFTISRDNAKNTVYLQMNSLKPEDTAVYYCNAYEYLSAGYDYWGQGTQVTVSS”, for which the “polyreactivity (PSR sort gate)” value is recorded as “low polyreactivity”.

As to “QVQLVESGGGLVQAGGSLRLSCAASGYIFLAYAKGWYRQAPGKERELVADNTYADSVKGRFTISRDNAKNTVYLKMNSMKPEDTAVYYCNADEVYDEYSYDYWGHGTQVTVSS”, the “polyreactivity (PSR sort gate)” value is “low polyreactivity”.

As to “QVQLVESGGGLVQAGGSLRLSFAASGRTFGRYAMGWYRPATGKERELVATISSRGGNTYYADSVKGRFTISRDNAQKTVYLEMNSLKAEDTAVYYCAAQTYKWYDWGQGTQVTVSS”, the “polyreactivity (PSR sort gate)” value was “high polyreactivity”.

For “QEQLQESGGGQVQAGGSLLLSCAASGNIIRYYYMGWYRQAPGKERELVAAITYGTSTNYADSVKGRFTISRDNATNTEFLQMNSLKPEDTAVYYCAVDVNYGDPIDNWGQGTQVTVSS”, the “polyreactivity (PSR sort gate)” value is reported as “high polyreactivity”.

Consider “QVQLVESGGGLVQAGGSLRLSCAATGYIGGNAMGWYRQAPWKERELVATLSRSGGSTYYADSVKGRFTISRDNAKNTVYLQMNSLKPEDSAVYYCAAVSYGNYHWGMYYWGQGTQVTVSS”, for which the “polyreactivity (PSR sort gate)” value is given as “low polyreactivity”.

“QVQLVESRGGLVQAGGSLRLSCAASGSIFDSYAMGWYRQAPGKERELVADISSGGSTYYADSVKGRFTISRDNAKNTVYLQMNSLKPEDTAVYYCAAQYVYYFYGDEAFTDDYWGQGTQVTVSS”: the “polyreactivity (PSR sort gate)” value is recorded as “low polyreactivity”.

Take “QVQLVESGGGLVQAGGSLRLSCAASGRIIYPNTMGWYRQAPGKERELVAAINRLGGSTYYADSVKGRFTISRDYAKNTVYLQMNSLIPEDTAVYYCAAYTTWTRSGYYDFTSYFWGQGTQVTVSS”: the “polyreactivity (PSR sort gate)” value is “high polyreactivity”.

In the case of “QVQLVESGGGLVQAGGSLRLSCAASGSTFYRNAMGWYRPAPGKERELVAAINSTDSTNYADSVKGRFTISRDNAKNTVYLQMNSLKPEDTAVYYCAAVGDNLATAEYDYWGQGTQVTVSS”, the “polyreactivity (PSR sort gate)” value is given as “low polyreactivity”.

For “QVQLVESGGGLVQAGGSLRLSCAASGFTFVNYAMGWYRQAPGKERELVAASSRSGGRTYYADSVKGRFTISRDNAKNTVYLQKNSLKPEDTAVYYCARLLLSPEYGYWGQGTQVTVSS”, the “polyreactivity (PSR sort gate)” value is “high polyreactivity”.

Take “QVQLVESGGGLVQAGGSLRLSCAATGYTFYIYAMGWYRQARGKERELVASITSDGRTNYADSVKGRFTISRDNAKNTVYLQMNSLKPEDTAVYYCATVGKVHDRLVAMDYWGQGTQVTGSS”: the “polyreactivity (PSR sort gate)” value is recorded as “low polyreactivity”.
